The source of these data is US20210046160A1, “Immuno Oncology Combination Therapies With IL-2 Conjugates” (Synthorx, Inc., priority 2019, published 2021).

Assay in all cases: cell-based or functional assay
For experiment [1], the target named is IL-2βγ receptor complex on recombinant human U2OS cells (PathHunter IL-2 Cytokine Receptor assay) (UniProt P14784).
Experiment [2] addresses IL-2 receptor αβγ on recombinant human U2OS cells further engineered to express the IL-2Rα subunit (PathHunter IL-2 Cytokine Receptor assay) (UniProt P01589).
The target in experiment [3] is IL-2 receptor signaling complexes on human primary CD8+ T cells and NK cells (human) (UniProt P14784).
Chain of IL-2 receptor signaling complexes on human primary CD8+ T cells and NK cells (human) (P14784 27-551, chain 1 of 2): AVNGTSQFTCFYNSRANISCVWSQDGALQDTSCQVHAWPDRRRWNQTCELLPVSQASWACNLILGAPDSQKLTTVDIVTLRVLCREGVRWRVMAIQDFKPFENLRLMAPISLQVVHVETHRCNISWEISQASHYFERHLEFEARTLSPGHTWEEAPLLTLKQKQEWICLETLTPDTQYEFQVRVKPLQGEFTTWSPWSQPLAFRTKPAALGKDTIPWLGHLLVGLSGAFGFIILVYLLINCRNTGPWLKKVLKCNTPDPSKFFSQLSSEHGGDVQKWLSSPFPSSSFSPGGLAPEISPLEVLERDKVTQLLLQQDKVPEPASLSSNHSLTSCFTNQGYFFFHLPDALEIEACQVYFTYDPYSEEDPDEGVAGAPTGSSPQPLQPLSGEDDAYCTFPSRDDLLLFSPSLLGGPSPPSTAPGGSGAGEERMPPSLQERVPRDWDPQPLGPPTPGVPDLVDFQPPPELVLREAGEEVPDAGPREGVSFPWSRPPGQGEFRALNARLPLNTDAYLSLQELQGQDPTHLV
Chain of IL-2 receptor signaling complexes on human primary CD8+ T cells and NK cells (human) (P31785 23-369, chain 2 of 2, further chain): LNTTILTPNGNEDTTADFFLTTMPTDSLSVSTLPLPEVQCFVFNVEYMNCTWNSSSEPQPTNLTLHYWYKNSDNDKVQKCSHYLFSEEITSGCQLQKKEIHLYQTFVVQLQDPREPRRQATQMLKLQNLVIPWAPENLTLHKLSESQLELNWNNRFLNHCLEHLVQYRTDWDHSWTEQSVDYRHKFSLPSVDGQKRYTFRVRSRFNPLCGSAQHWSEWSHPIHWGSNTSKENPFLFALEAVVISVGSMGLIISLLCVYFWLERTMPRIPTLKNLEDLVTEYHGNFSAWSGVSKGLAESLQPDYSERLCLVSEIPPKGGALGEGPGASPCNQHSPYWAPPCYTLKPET
The target of experiment [4] is IL-2 receptor signaling complexes on human primary Treg cells (IL-2 Rα expressing) (human) (UniProt P01589).
Chain of IL-2 receptor signaling complexes on human primary Treg cells (IL-2 Rα expressing) (human) (P01589 22-272, chain 1 of 3): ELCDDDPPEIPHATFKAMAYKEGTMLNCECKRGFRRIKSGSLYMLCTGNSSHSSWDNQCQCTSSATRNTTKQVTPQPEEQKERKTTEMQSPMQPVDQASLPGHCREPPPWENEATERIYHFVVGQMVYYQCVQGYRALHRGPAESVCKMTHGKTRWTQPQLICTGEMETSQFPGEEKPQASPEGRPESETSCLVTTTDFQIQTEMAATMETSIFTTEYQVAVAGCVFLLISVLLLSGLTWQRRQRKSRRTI
Chain of IL-2 receptor signaling complexes on human primary Treg cells (IL-2 Rα expressing) (human) (P14784 27-551, chain 2 of 3, further chain): as the sequence (P14784 27-551, chain 1 of 2) above
Chain of IL-2 receptor signaling complexes on human primary Treg cells (IL-2 Rα expressing) (human) (P31785 23-369, chain 3 of 3, further chain): as the sequence (P31785 23-369, chain 2 of 2, further chain) above

Chain of F42_30kD (P60568 other isoform, or with tags, fused parts or gaps limits assumed): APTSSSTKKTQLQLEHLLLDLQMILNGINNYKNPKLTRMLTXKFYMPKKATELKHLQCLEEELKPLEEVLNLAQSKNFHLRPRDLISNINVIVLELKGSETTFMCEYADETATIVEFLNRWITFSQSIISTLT
Chain of K43_30kD (P60568 other isoform, or with tags, fused parts or gaps limits assumed): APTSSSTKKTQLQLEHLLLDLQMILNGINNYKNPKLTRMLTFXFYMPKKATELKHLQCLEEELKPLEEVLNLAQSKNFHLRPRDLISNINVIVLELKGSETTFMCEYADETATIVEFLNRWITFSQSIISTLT
Chain of K35 (10 kD PEGylated IL-2 conjugate, Table 2) (P60568 other isoform, or with tags, fused parts or gaps limits assumed): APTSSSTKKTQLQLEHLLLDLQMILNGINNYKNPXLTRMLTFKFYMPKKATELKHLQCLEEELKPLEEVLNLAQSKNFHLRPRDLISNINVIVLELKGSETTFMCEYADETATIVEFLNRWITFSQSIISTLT

Regarding “F42 (10 kD PEGylated IL-2 conjugate, Table 2) (from UniProt P60568 21-153) (ligand)”, the EC50 (nM), PathHunter IL-2 Cytokine Receptor assay, βγ in experiment [1] is 6.09 nM. In addition, the EC50 (nM), PathHunter IL-2 Cytokine Receptor assay, αβγ in experiment [2] turned out to be 0.515 nM.

With “F42_30kD (from UniProt P60568 21-153) (ligand)”, in experiment [3], the EC50 for pSTAT5 signaling; CD8+ T Cells was 108000 pg/mL and the EC50 for pSTAT5 signaling; NK Cells turned out to be 16400 pg/mL. In experiment [4], this substance returned an EC50 for pSTAT5 signaling; Treg Cells of 36900 pg/mL.

Turning to “K35 (10 kD PEGylated IL-2 conjugate, Table 2) (from UniProt P60568 21-153) (ligand)”, the EC50 (nM), PathHunter IL-2 Cytokine Receptor assay, βγ in experiment [1] was determined as 6.75 nM.

For “K43 (10 kD PEGylated IL-2 conjugate, Table 2) (from UniProt P60568 21-153) (ligand)”, the EC50 (nM), PathHunter IL-2 Cytokine Receptor assay, βγ in experiment [1] is 9.84 nM. The EC50 (nM), PathHunter IL-2 Cytokine Receptor assay, αβγ in experiment [2] came to 0.131 nM.

On to “K43_30kD (from UniProt P60568 21-153) (ligand)”, for which, in experiment [3], the EC50 for pSTAT5 signaling; CD8+ T Cells turned out to be 50500 pg/mL and the EC50 for pSTAT5 signaling; NK Cells turned out to be 9000 pg/mL. The same substance had an EC50 for pSTAT5 signaling; Treg Cells in experiment [4] of 4800 pg/mL.

For the substance “R38 (10 kD PEGylated IL-2 conjugate, Table 2) (from UniProt P60568 21-153) (ligand)”, the EC50 (nM), PathHunter IL-2 Cytokine Receptor assay, βγ in experiment [1] is 4.16 nM. Further, in experiment [2], the EC50 (nM), PathHunter IL-2 Cytokine Receptor assay, αβγ was determined as 0.165 nM.

Turning to “T41 (10 kD PEGylated IL-2 conjugate, Table 2) (from UniProt P60568 21-153) (ligand)”, the EC50 (nM), PathHunter IL-2 Cytokine Receptor assay, βγ in experiment [1] was 6.37 nM. Also, in experiment [2], the EC50 (nM), PathHunter IL-2 Cytokine Receptor assay, αβγ was 0.0489 nM.

“V69* (30 kD PEGylated IL-2 conjugate, Table 2) (from UniProt P60568 21-153) (ligand)”: the EC50 (nM), PathHunter IL-2 Cytokine Receptor assay, βγ in experiment [1] stood at 9.99 nM. The EC50 (nM), PathHunter IL-2 Cytokine Receptor assay, αβγ in experiment [2] came to 0.083 nM.

“Y45* (30 kD PEGylated IL-2 conjugate, Table 2) (from UniProt P60568 21-153) (ligand)”: the EC50 (nM), PathHunter IL-2 Cytokine Receptor assay, βγ in experiment [1] was 9.06 nM. In addition, the EC50 (nM), PathHunter IL-2 Cytokine Receptor assay, αβγ in experiment [2] amounted to 0.11 nM.
